Data as given in patent US20180186893A1 (NATIONAL RESEARCH COUNCIL OF CANADA, published 2018).

Assays:
[1] = molecular target: T1, hCA-IX fragment 2 (aa 38-136, +PG+) displayed on yeast as Aga2-HA-CA9-MYC (pPNL6), clone 2B (human, UniProt P32781 19-87; Q16790 38-136); assay: YSD whole yeast cell ELISA, native
T1 construct: not shown: HA tag; MYC tag

[2] = molecular target: T2, rhCA-IV (human, UniProt P22748 19-283, limits assumed); assay: SPR, antibody captured by anti-human Fc
T2 construct: Bought; construct not described; also called recombinant human CA-IV

[3] = molecular target: T3, rhCA-XII (human, UniProt O43570 25-291, limits assumed); assay: SPR, antibody captured by anti-human Fc
T3 construct: Bought; construct not described; also called recombinant human CA-XII (Sino Biologics)

[4] = molecular target: T4, rhCA-XIV (human, UniProt Q9ULX7 16-290, limits assumed); assay: SPR, antibody captured by anti-human Fc
T4 construct: Bought; construct not described; also called recombinant human CA-XIV

[5] = molecular target: T5, rmCA-IX (murine, UniProt Q8VHB5 32-389, limits assumed); assay: SPR, antibody captured by anti-human Fc
T5 construct: Bought; construct not described; also called recombinant murine (rm)CA-IX

[6] = molecular target: T6, hCA-IX PG domain fragment #1 (aa 37-51) displayed on yeast as Aga2-HA-CA9-MYC (pPNL6), clone 1 A + B (human, UniProt P32781 19-87 (Saccharomyces cerevisiae entry)); assay: YSD whole yeast cell ELISA, native PG tiling fragment;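 also: monoclonal antibody binding to intact yeast cells displaying the fragment, read by ELISA, with the anti-CA-IX signal normalized against the anti-MYC display signal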
T6 construct: not shown: HA tag; MYC tag

[7] = molecular target: T7, hCA-IX PG domain fragment #2 (aa 47-61) displayed on yeast as Aga2-HA-CA9-MYC (pPNL6), clone 2 A + B (human, UniProt P32781 19-87 (Saccharomyces cerevisiae entry)); assay: as above
T7 construct: not shown: HA tag; MYC tag

[8] = molecular target: T8, hCA-IX PG domain fragment #3 (aa 57-71) displayed on yeast as Aga2-HA-CA9-MYC (pPNL6), clone 3 A + B (human, UniProt P32781 19-87 (Saccharomyces cerevisiae entry)); assay: as above
T8 construct: not shown: HA tag; MYC tag

[9] = molecular target: T9, hCA-IX PG domain fragment #4 (aa 67-81) displayed on yeast as Aga2-HA-CA9-MYC (pPNL6), clone 4 A + B (human, UniProt P32781 19-87 (Saccharomyces cerevisiae entry)); assay: as above
T9 construct: not shown: HA tag; MYC tag

[10] = molecular target: T10, hCA-IX PG domain fragment #5 (aa 77-91) displayed on yeast as Aga2-HA-CA9-MYC (pPNL6), clone 5 A + B (human, UniProt P32781 19-87 (Saccharomyces cerevisiae entry)); assay: as above
T10 construct: not shown: HA tag; MYC tag

[11] = molecular target: T11, hCA-IX PG domain fragment #6 (aa 87-101) displayed on yeast as Aga2-HA-CA9-MYC (pPNL6), clone 6 A + B (human, UniProt P32781 19-87 (Saccharomyces cerevisiae entry)); assay: as above
T11 construct: not shown: HA tag; MYC tag

[12] = molecular target: T12, hCA-IX PG domain fragment #7 (aa 97-111) displayed on yeast as Aga2-HA-CA9-MYC (pPNL6), clone 7 A + B (human, UniProt P32781 19-87 (Saccharomyces cerevisiae entry)); assay: as above
T12 construct: not shown: HA tag; MYC tag

[13] = molecular target: T13, hCA-IX PG domain fragment #8 (aa 107-121) displayed on yeast as Aga2-HA-CA9-MYC (pPNL6), clone 8 A + B (human, UniProt P32781 19-87 (Saccharomyces cerevisiae entry)); assay: as above
T13 construct: not shown: HA tag; MYC tag

[14] = molecular target: T14, hCA-IX PG domain fragment #9 (aa 117-131) displayed on yeast as Aga2-HA-CA9-MYC (pPNL6), clone 9 A + B (human, UniProt P32781 19-87 (Saccharomyces cerevisiae entry)); assay: as above
T14 construct: not shown: HA tag; MYC tag

[15] = molecular target: T15, hCA-IX PG domain fragment #11 (aa 37-71) displayed on yeast as Aga2-HA-CA9-MYC (pPNL6), clone 11 A + B (human, UniProt P32781 19-87 (Saccharomyces cerevisiae entry)); assay: as above
T15 construct: not shown: HA tag; MYC tag

[16] = molecular target: T16, hCA-IX PG domain fragment #12 (aa 67-111) displayed on yeast as Aga2-HA-CA9-MYC (pPNL6), clone 12 A + B (human, UniProt P32781 19-87 (Saccharomyces cerevisiae entry)); assay: as above
T16 construct: not shown: HA tag; MYC tag

[17] = molecular target: T17, hCA-IX PG domain fragment #13 (aa 107-140) displayed on yeast as Aga2-HA-CA9-MYC (pPNL6), clone 13 A + B (human, UniProt P32781 19-87 (Saccharomyces cerevisiae entry)); assay: as above
T17 construct: not shown: HA tag; MYC tag

[18] = molecular target: T18, hCA-IX PG domain fragment #14 (aa 37-140) displayed on yeast as Aga2-HA-CA9-MYC (pPNL6), clone 14 A + B (human, UniProt P32781 19-87 (Saccharomyces cerevisiae entry)); assay: as above
T18 construct: not shown: HA tag; MYC tag

[19] = molecular target: T19, dimeric CA-IX extracellular domain (ECD) from mouse (mouse, UniProt Q8VHB5 32-390); assay: SPR, antibody captured by anti-human Fc, specific binding yes/no
T19 construct: extracellular domain

[20] = molecular target: hCA-IX fragment 8 (aa 38-414, +PG+CA+) displayed on yeast as Aga2-HA-CA9-MYC (pPNL6), clone 8B (human, UniProt P32781 19-87; Q16790 38-414); assay: YSD whole yeast cell ELISA, native, normalised to anti-MYC; native fragment on yeast (Table 7)
Chain of hCA-IX fragment 8 (aa 38-414, +PG+CA+) displayed on yeast as Aga2-HA-CA9-MYC (pPNL6), clone 8B (P32781 19-87 limits assumed, chain 1 of 2, other chains not shown): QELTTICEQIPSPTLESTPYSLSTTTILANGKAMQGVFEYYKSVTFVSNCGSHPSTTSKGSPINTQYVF

T16 sequence (P32781 19-87 limits assumed, chain 1 of 2): as the sequence (P32781 19-87 limits assumed, chain 1 of 2, other chains not shown) above
T16 sequence (chain (part 2 of 2), as listed by the source limits assumed, chain 2 of 2): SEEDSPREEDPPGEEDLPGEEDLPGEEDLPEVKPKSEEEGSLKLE
T18 sequence (P32781 19-87 limits assumed, chain 1 of 2): as the sequence (P32781 19-87 limits assumed, chain 1 of 2, other chains not shown) above
T18 sequence (chain (part 2 of 2), as listed by the source limits assumed, chain 2 of 2): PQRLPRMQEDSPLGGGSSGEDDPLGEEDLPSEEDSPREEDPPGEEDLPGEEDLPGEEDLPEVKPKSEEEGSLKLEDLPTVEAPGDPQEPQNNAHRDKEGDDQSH
T17 sequence (P32781 19-87 limits assumed, chain 1 of 2): as the sequence (P32781 19-87 limits assumed, chain 1 of 2, other chains not shown) above
T17 sequence (chain (part 2 of 2), as listed by the source limits assumed, chain 2 of 2): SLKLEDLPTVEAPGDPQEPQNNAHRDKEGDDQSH
T11 sequence (P32781 19-87 limits assumed): as the sequence (P32781 19-87 limits assumed, chain 1 of 2, other chains not shown) above
T8 sequence (P32781 19-87 limits assumed): as the sequence (P32781 19-87 limits assumed, chain 1 of 2, other chains not shown) above
T13 sequence (P32781 19-87 limits assumed): as the sequence (P32781 19-87 limits assumed, chain 1 of 2, other chains not shown) above
T6 sequence (P32781 19-87 limits assumed): as the sequence (P32781 19-87 limits assumed, chain 1 of 2, other chains not shown) above
T7 sequence (P32781 19-87 limits assumed): as the sequence (P32781 19-87 limits assumed, chain 1 of 2, other chains not shown) above
T12 sequence (P32781 19-87 limits assumed): as the sequence (P32781 19-87 limits assumed, chain 1 of 2, other chains not shown) above
T14 sequence (P32781 19-87 limits assumed): as the sequence (P32781 19-87 limits assumed, chain 1 of 2, other chains not shown) above
T15 sequence (P32781 19-87 limits assumed, chain 1 of 2): as the sequence (P32781 19-87 limits assumed, chain 1 of 2, other chains not shown) above
T15 sequence (chain (part 2 of 2), as listed by the source limits assumed, chain 2 of 2): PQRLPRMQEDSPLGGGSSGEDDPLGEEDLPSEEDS
T10 sequence (P32781 19-87 limits assumed): as the sequence (P32781 19-87 limits assumed, chain 1 of 2, other chains not shown) above
T9 sequence (P32781 19-87 limits assumed): as the sequence (P32781 19-87 limits assumed, chain 1 of 2, other chains not shown) above
T1 sequence (P32781 19-87 limits assumed, chain 1 of 2, other chains not shown): as above
T3 sequence (O43570 25-291 limits assumed): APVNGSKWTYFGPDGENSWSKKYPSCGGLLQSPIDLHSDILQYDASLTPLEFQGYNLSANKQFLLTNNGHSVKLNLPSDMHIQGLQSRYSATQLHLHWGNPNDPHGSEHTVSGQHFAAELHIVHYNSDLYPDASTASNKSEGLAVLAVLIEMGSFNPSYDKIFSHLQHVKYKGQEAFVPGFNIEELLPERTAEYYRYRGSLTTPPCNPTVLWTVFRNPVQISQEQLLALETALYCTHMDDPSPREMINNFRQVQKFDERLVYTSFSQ
T2 sequence (P22748 19-283 limits assumed): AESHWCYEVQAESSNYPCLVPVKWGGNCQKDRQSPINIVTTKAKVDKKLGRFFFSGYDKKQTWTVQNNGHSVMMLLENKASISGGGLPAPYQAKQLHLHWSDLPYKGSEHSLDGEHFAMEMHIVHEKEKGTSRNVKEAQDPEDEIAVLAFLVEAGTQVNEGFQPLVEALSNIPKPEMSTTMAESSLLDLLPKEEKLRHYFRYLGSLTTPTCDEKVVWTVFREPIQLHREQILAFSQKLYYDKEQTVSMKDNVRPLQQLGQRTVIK
T5 sequence (Q8VHB5 32-389 limits assumed): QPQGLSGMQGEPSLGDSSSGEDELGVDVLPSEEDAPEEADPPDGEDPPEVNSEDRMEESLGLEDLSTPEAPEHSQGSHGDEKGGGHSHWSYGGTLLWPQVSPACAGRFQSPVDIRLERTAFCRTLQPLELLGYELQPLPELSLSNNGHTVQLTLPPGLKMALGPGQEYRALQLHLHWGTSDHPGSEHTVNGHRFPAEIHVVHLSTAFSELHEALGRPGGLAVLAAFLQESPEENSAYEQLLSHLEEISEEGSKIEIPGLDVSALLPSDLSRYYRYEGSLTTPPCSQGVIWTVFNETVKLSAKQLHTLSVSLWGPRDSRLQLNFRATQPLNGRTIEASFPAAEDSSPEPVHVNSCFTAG
T4 sequence (Q9ULX7 16-290 limits assumed): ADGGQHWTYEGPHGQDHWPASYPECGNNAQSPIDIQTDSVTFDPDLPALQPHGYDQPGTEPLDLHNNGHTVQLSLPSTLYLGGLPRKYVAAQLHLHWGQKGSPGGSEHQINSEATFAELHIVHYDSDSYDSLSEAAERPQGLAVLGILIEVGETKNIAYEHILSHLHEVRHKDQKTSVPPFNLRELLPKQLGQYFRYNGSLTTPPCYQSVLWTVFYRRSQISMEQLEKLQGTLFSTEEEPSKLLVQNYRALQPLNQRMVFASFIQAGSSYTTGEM
T19 sequence (Q8VHB5 32-390): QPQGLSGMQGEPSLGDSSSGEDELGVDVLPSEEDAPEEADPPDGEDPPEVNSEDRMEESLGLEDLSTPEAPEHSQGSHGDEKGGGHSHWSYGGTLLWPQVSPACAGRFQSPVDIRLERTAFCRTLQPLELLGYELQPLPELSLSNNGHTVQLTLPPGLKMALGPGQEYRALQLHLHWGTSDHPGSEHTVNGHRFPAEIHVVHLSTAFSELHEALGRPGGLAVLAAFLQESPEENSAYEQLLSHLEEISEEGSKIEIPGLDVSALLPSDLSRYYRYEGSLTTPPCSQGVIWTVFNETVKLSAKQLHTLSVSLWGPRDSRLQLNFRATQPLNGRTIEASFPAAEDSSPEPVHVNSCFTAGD

B1: c2C7 (chimeric 2C7, human IgG1 / human kappa 1) (antibody, V domains shown)
VH: QVQLQQSGPELVKPGASVRISCKASGFTFTSCYIHWMKQRPGQGLEWIGWIYPGNGNTKYNEIFKGRATLTTDKSSSTAYMQLSSLTSEDSAVYFCARGDTTANTMDYWGQGTSVTVSS
VL: DIQMTQSPASLSASVGETVTITCRASGNIHNYLAWYQQKQGKSPQLLVYNTITLADGVPSRFSGSGSGTQYSLKINSLQPEDFGSYYCQHFWNIPFTFGAGTKLELKR
notes: Expressed in CHO cells
B1: no binding [1]; no binding (tested: 100 nM) [2]; no binding (tested: 100 nM) [3]. B1: no binding (tested: 100 nM) [4]; no binding (tested: 100 nM) [5]; no binding [6]. B1: no binding [7]; no binding [8]; no binding [9]. B1: no binding [10]; no binding [11]; no binding [12]. B1: no binding [13]; no binding [14]; no binding [15]. B1: no binding [16]; no binding [17]; no binding [18]. B1: no binding [19]; binds [20].
